Data: publication PMC2115308
Several values for one entry are separate records, joined by “and”; a condition that tells them apart may be missing. Equal entries are not always repeated. Where two headings read alike, the source gives them in different places. No end group written: not given here. *: point of attachment. 125I = [125I]*

What was measured:
[1] = biological target: Arg-Gly-Asp-directed receptors on LiBr melanoma cells (human (endogenous in LiBr)); test: radioligand binding
[2] = biological target: Arg-Gly-Asp-directed receptors on LiBr melanoma cells (human (endogenous in LiBr)); test: radioligand binding; remark: listed apart in the source

B1: iodinated synthetic peptide KYGRGDSP (peptide)
peptide: KY(125I)GRGDSP
- specific cpm [1]: 2660 cpm
- specific cpm [2]: 637 cpm and 494 cpm
